The source of these data is the RNAGym collection of RNA variant scans (doi:10.7554/elife.80360).

To fix the notation:
B1: Hammerhead Ribozyme (parent)
chain: ACCGGAUGUGCUUUCCGGUCUGAUGAGUCCGUGAGGACGAAACAG

The variants in the data set derive from B1. The data set can be described thus: self-cleavage, relative activity (ratio to wild type); higher = more cleavage; co-transcriptional.
As for ACCGGAUGUACUUUCCGGUCUGAUAAGUCCGUGAGGACGAAACAG [G10A G25A], the self-cleavage was determined as 0.365. In the case of ACCGGAUGUACUUUCCGGUCUGAUUAGUCCGUGAGGACGAAACAG [G10A G25U] it was 0.345; in that of ACCGGAUGUACUUUCCGGUCUGAUCAGUCCGUGAGGACGAAACAG [G10A G25C], 0.362. For ACCGGAUGUACUUUCCGGUCUGAUGAGUCCGUGAGGACGAAACUG [G10A A44U], the self-cleavage turned out to be 0.741. On to ACCGGAUGUACUUUCCGGUCUGAUGAGUCCGUGAGGACGAAACGG [G10A A44G], for which the self-cleavage turned out to be 1.71.

As to ACCGGAUGUACUUUCCGGUCUGAUGAGUCCGUGAGGACGAAACCG [G10A A44C], the self-cleavage turned out to be 0.517.

ACCGGAUGUACUUUCCGGUCUGAUGAGUCCGUGAGGACGAGACAG [G10A A41G]: the self-cleavage was 0.359. Take ACCGGAUGUACUUUCCGGUCUGAUGAGUCCGUGAGGACGACACAG [G10A A41C]: the self-cleavage was 0.306. In the case of ACCGGAUGUACUUUCCGGUCUGAUGAGUCCGUGAGGACGAUACAG [G10A A41U] it was 0.386; in that of ACCGGAUGUACUUUCCGGUCUGAUGAAUCCGUGAGGACGAAACAG [G10A G27A], 0.94. ACCGGAUGUACUUUCCGGUCUGAUGAUUCCGUGAGGACGAAACAG [G10A G27U]: the self-cleavage stood at 0.431. ACCGGAUGUACUUUCCGGUCUGAUGACUCCGUGAGGACGAAACAG [G10A G27C]: the self-cleavage came to 0.701. On to ACCGGAUGUACUUUCCGGUCUGAUGAGUCCGUGAGAACGAAACAG [G10A G36A], for which the self-cleavage is 0.742. The value for ACCGGAUGUACUUUCCGGUCUGAUGAGUCCGUGAGUACGAAACAG [G10A G36U] was 0.632; that for ACCGGAUGUACUUUCCGGUCUGAUGAGUCCGUGAGCACGAAACAG [G10A G36C] was 0.843; that for ACCGGAUGUACUUUCCGGUCUGAUGAGUCCGUGAGGACGAAACAG [G10A] was 1.09. The value for ACCGGAUGGGCUUUCCGGGCUGAUGAGUCCGUGAGGACGAAACAG [U9G U19G] was 0.343; that for ACCGGAUGGGCUUUCCGGCCUGAUGAGUCCGUGAGGACGAAACAG [U9G U19C] was 0.329; that for ACCGGAUGGGCUUUCCGGACUGAUGAGUCCGUGAGGACGAAACAG [U9G U19A] was 0.376. In the case of ACCGGAUGUACUUUCCGGUGUGAUGAGUCCGUGAGGACGAAACAG [G10A C20G] it was 0.303; in that of ACCGGAUGUACUUUCCGGUUUGAUGAGUCCGUGAGGACGAAACAG [G10A C20U], 0.543. With ACCGGAUGUACUUUCCGGUAUGAUGAGUCCGUGAGGACGAAACAG [G10A C20A], the self-cleavage is 0.451. As for ACCGGAUGUACUUUCCCGUCUGAUGAGUCCGUGAGGACGAAACAG [G10A G17C], the self-cleavage is 0.61.

As for ACCGGAUGUACUUUCCUGUCUGAUGAGUCCGUGAGGACGAAACAG [G10A G17U], the self-cleavage is 0.986. For the variant ACCGGAUGUACUUUCCAGUCUGAUGAGUCCGUGAGGACGAAACAG [G10A G17A], the self-cleavage worked out at 0.81. In the case of ACCGGAUGUACUUUCCGGUCUCAUGAGUCCGUGAGGACGAAACAG [G10A G22C] it was 0.32; in that of ACCGGAUGUACUUUCCGGUCUAAUGAGUCCGUGAGGACGAAACAG [G10A G22A], 0.352; in that of ACCGGAUGUACUUUCCGGUCUUAUGAGUCCGUGAGGACGAAACAG [G10A G22U], 0.319.

As to ACCGGAUGGGCUUUCCGGUCAGAUGAGUCCGUGAGGACGAAACAG [U9G U21A], the self-cleavage worked out at 0.405. The value for ACCGGAUGGGCUUUCCGGUCCGAUGAGUCCGUGAGGACGAAACAG [U9G U21C] was 0.414. The value for ACCGGAUGGGCUUUCCGGUCGGAUGAGUCCGUGAGGACGAAACAG [U9G U21G] was 0.406; that for ACCGGAUGUACUUUCCGGUCUGAUGAGUCCGUGAGGACUAAACAG [G10A G39U] was 0.401.

Consider ACCGGAUGUACUUUCCGGUCUGAUGAGUCCGUGAGGACAAAACAG [G10A G39A], for which the self-cleavage came to 0.373.

Take ACCGGAUGUACUUUCCGGUCUGAUGAGUCCGUGAGGACCAAACAG [G10A G39C]: the self-cleavage was 0.45. The value for ACCGGAUGUACUUUCCGGUCUGAUGAGUUCGUGAGGACGAAACAG [G10A C29U] was 1.17. Take ACCGGAUGUACUUUCCGGUCUGAUGAGUACGUGAGGACGAAACAG [G10A C29A]: the self-cleavage was determined as 0.654. The value for ACCGGAUGUACUUUCCGGUCUGAUGAGUGCGUGAGGACGAAACAG [G10A C29G] was 0.853; that for ACCGGAUGUACUUUCCGGUCGGAUGAGUCCGUGAGGACGAAACAG [G10A U21G] was 0.462; that for ACCGGAUGUACUUUCCGGUCCGAUGAGUCCGUGAGGACGAAACAG [G10A U21C] was 0.815.

Turning to ACCGGAUGUACUUUCCGGUCAGAUGAGUCCGUGAGGACGAAACAG [G10A U21A], the self-cleavage came to 0.588. ACCGGAUGUACUUUCCGGUCUGAUGAGUCCGUGAGGACGAACCAG [G10A A42C]: the self-cleavage came to 0.406. The value for ACCGGAUGUACUUUCCGGUCUGAUGAGUCCGUGAGGACGAAUCAG [G10A A42U] was 0.38; that for ACCGGAUGUACUUUCCGGUCUGAUGAGUCCGUGAGGACGAAGCAG [G10A A42G] was 0.288.

With ACCGGAUGUACUUUCCGGUCUGAUGAGUCCGUGGGGACGAAACAG [G10A A34G], the self-cleavage worked out at 0.836. In the case of ACCGGAUGUACUUUCCGGUCUGAUGAGUCCGUGCGGACGAAACAG [G10A A34C] it was 1.2. The value for ACCGGAUGUACUUUCCGGUCUGAUGAGUCCGUGUGGACGAAACAG [G10A A34U] was 0.919; that for ACCGGAUGUACUUUCCGGUCUGACGAGUCCGUGAGGACGAAACAG [G10A U24C] was 0.932. ACCGGAUGUACUUUCCGGUCUGAAGAGUCCGUGAGGACGAAACAG [G10A U24A]: the self-cleavage came to 1.12. In the case of ACCGGAUGGGCUUUCCGGUCUGAAGAGUCCGUGAGGACGAAACAG [U9G U24A] it was 0.928; in that of ACCGGAUGGGCUUUCCGGUCUGAGGAGUCCGUGAGGACGAAACAG [U9G U24G], 0.671; in that of ACCGGAUGGGCUUUCCGGUCUGACGAGUCCGUGAGGACGAAACAG [U9G U24C], 0.919. Consider ACCGGAUGGGCUUUCCGGUCUGAUGAGUCCGCGAGGACGAAACAG [U9G U32C], for which the self-cleavage amounted to 1.21. With ACCGGAUGGGCUUUCCGGUCUGAUGAGUCCGAGAGGACGAAACAG [U9G U32A], the self-cleavage was 1.31. In the case of ACCGGAUGGGCUUUCCGGUCUGAUGAGUCCGGGAGGACGAAACAG [U9G U32G] it was 1.07; in that of ACCGGAUGUACUUUCCGGUCUGAUGAGUCCGUGAGGACGAAACAC [G10A G45C], 0.93. ACCGGAUGUACUUUCCGGUCUGAUGAGUCCGUGAGGACGAAACAA [G10A G45A]: the self-cleavage worked out at 0.9.

Turning to ACCGGAUGUACUUUCCGGUCUGAUGAGUCCGUGAGGACGAAACAU [G10A G45U], the self-cleavage worked out at 0.767.
